In publication PMC4264349 one finds resonant frequency shift data, which are given here for 1 substance.

The target of this assay is Biotinylated calmodulin (UniProt P62157). The assay is described as follows: film bulk acoustic resonator (FBAR); biotinylated calmodulin immobilised on Neutravidin adsorbed on the gold sensor surface (190 ng/cm^2 shown; qualitatively the same at all surface concentrations); peptide injected in flow, 10 µL/min; 10 mM HEPES-NaOH, pH 7.2, 100 mM NaCl, 1 mM CaCl2; resonant frequency and motional resistance monitored; peptide concentration not given.

As to “Ca2+/calmodulin kinase II inhibitor (CaMKII 281-309) (from UniProt P11275 281-309) (peptide)”, the resonant frequency shift at saturation was -1.4 MHz.
